Measured values: IntAct's records for PubMed 19797078

B1: Ribosome assembly factor MRT4 (Saccharomyces cerevisiae), P33201 (parent)
chain: MPRSKRSKLVTLAQTDKKGRENKERIFDEVREALDTYRYVWVLHLDDVRTPVLQEIRTSWAGSKLIMGKRKVLQKALGEKREEEYKENLYQLSKLCSGVTGLLFTDEDVNTVKEYFKSYVRSDYSRPNTKAPLTFTIPEGIVYSRGGQIPAEEDVPMIHSLEPTMRNKFEIPTKIKAGKITIDSPYLVCTEGEKLDVRQALILKQFGIAASEFKVKVSAYYDNDSSTVESTNINME
partner: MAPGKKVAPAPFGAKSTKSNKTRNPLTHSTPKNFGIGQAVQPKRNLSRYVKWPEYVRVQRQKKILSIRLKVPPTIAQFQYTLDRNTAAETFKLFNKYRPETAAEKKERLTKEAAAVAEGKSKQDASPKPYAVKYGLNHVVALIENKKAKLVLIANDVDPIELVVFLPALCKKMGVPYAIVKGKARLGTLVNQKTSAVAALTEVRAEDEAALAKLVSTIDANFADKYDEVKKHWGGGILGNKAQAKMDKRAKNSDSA
B2: Tyrosine-protein phosphatase YVH1 (Saccharomyces cerevisiae), Q02256 (parent)
chain: MAGNANSVDEEVTRILGGIYLGGIRPIIDHRPLGAEFNITHILSVIKFQVIPEYLIRKGYTLKNIPIDDDDVTDVLQYFDETNRFIDQCLFPNEVEYSPRLVDFKKKPQRGAVFAHCQAGLSRSVTFIVAYLMYRYGLSLSMAMHAVKRKKPSVEPNENFMEQLHLFEKMGGDFVDFDNPAYKQWKLKQSIKLDPSGSELVSNSGMFKDSESSQDLDKLTEAEKSKVTAVRCKKCRTKLALSTSFIAHDPPSKESSEGHFIKRAANSHRIIDIQESQANCSHFFIEPLKWMQPELQGKQELEGKFSCPGCSSKVGGYNWKGSRCSCGKWVIPAIHLQTSKVDQFPLQSTALPNMVNFESEKVNR
partner: B1 partner

Variants of: B1
Settings: with rl8a_yeast RPL8A

| Variant | effect of a mutation on the interaction |
| --- | --- |
| G68D | decreasing interaction |

Variants of: B2
Settings: with rl8a_yeast RPL8A

| Variant | effect of a mutation on the interaction |
| --- | --- |
| C117S | decreasing interaction |
